Experiments:
[1] = molecular target: the molecule itself; test: SEC; Superose 6 size exclusion column, 250 mM NaCl; ~0.5 mg of protein; markers ferritin (440 kD) and aldolase (158 kD); self-association to the hexamer
[2] = substrate: Nc1ncnc2c1ncn2[C@@H]1O[C@H](COP(=O)(O)OP(=O)(O)OP(=O)(O)O)[C@@H](O)[C@H]1O; test: EnzChek phosphate release ATPase assay; assay type: biochemical, Saccharolobus solfataricus; details: no DNA, per monomeric MCM subunit, unit nM
Description: EnzChek phosphate release ATPase assay on ssoMCM

[3] = mutant M1: text gives lysine K323, Table 2 prints R323A

B1: ssoMCM mutant M6 (D327A) (enzyme, Sulfolobus solfataricus, UniProt Q9UXG1 1-686, looked up)
chain: MEIPSKQIDYRDVFIEFLTTFKGNNNQNKYIERINELVAYRKKSLIIEFSDVLSFNENLAYEIINNTKIILPILEGALYDHILQLDPTYQRDIEKVHVRIVGIPRVIELRKIRSTDIGKLITIDGILVKVTPVKERIYKATYKHIHPDCMQEFEWPEDEEMPEVLEMPTICPKCGKPGQFRLIPEKTKLIDWQKAVIQERPEEVPSGQLPRQLEIILEDDLVDSARPGDRVKVTGILDIKQDSPVKRGSRAVFDIYMKVSSIEVSQKVLDEVIISEEDEKKIKDLAKDPWIRDRIISSIAPSIYGHWELKEALALALFGGVPKVLEATRIRGDIHILIIGDPGTAKSQMLQFISRVAPRAVYTTGKGSTAAGLTAAVVREKGTGEYYLEAGALVLADGGIAVIDEIDKMRDEDRVAIHEAMEQQTVSIAKAGIVAKLNARAAVIAAGNPKFGRYISERPVSDNINLPPTILSRFDLIFILKDQPGEQDRELANYILDVHSGKSTKNIIDIDTLRKYIAYARKYVTPKITSEAKNLITDFFVEMRKKSSETPDSPILITPRQLEALIRISEAYAKMALKAEVTREDAERAINIMRLFLESVGVDMESGKIDIDTIMTGKPKSAREKMMKIIEIIDSLAVSSECAKVKDILKEAQQVGIEKSNIEKLLTDMRKSGIIYEAKPECYKKV
notes: MCM of Sulfolobus solfataricus with D327A; source: cloned and purified (Resource Q anion exchange, size-exclusion chromatography) as described previously [15]
stoichiometry N [1]: 6 | Km ([2]; mutant M6): 100 ± 20 nM | kcat ([2]; mutant M6): 0.0383 ± 0.00167 s⁻¹

B2: ssoMCM mutant M8 (R329A) (enzyme, Sulfolobus solfataricus, UniProt Q9UXG1 1-686, looked up)
chain: MEIPSKQIDYRDVFIEFLTTFKGNNNQNKYIERINELVAYRKKSLIIEFSDVLSFNENLAYEIINNTKIILPILEGALYDHILQLDPTYQRDIEKVHVRIVGIPRVIELRKIRSTDIGKLITIDGILVKVTPVKERIYKATYKHIHPDCMQEFEWPEDEEMPEVLEMPTICPKCGKPGQFRLIPEKTKLIDWQKAVIQERPEEVPSGQLPRQLEIILEDDLVDSARPGDRVKVTGILDIKQDSPVKRGSRAVFDIYMKVSSIEVSQKVLDEVIISEEDEKKIKDLAKDPWIRDRIISSIAPSIYGHWELKEALALALFGGVPKVLEDTAIRGDIHILIIGDPGTAKSQMLQFISRVAPRAVYTTGKGSTAAGLTAAVVREKGTGEYYLEAGALVLADGGIAVIDEIDKMRDEDRVAIHEAMEQQTVSIAKAGIVAKLNARAAVIAAGNPKFGRYISERPVSDNINLPPTILSRFDLIFILKDQPGEQDRELANYILDVHSGKSTKNIIDIDTLRKYIAYARKYVTPKITSEAKNLITDFFVEMRKKSSETPDSPILITPRQLEALIRISEAYAKMALKAEVTREDAERAINIMRLFLESVGVDMESGKIDIDTIMTGKPKSAREKMMKIIEIIDSLAVSSECAKVKDILKEAQQVGIEKSNIEKLLTDMRKSGIIYEAKPECYKKV
notes: MCM of Sulfolobus solfataricus with R329A; source: cloned and purified (Resource Q anion exchange, size-exclusion chromatography) as described previously [15]
stoichiometry N [1]: 6 | Km ([2]; mutant M8): 170 ± 40 nM | kcat ([2]; mutant M8): 0.03 ± 0.00167 s⁻¹

B3: Sulfolobus solfataricus MCM (minichromosome maintenance protein), wild type (enzyme, UniProt Q9UXG1 1-686, looked up)
chain: MEIPSKQIDYRDVFIEFLTTFKGNNNQNKYIERINELVAYRKKSLIIEFSDVLSFNENLAYEIINNTKIILPILEGALYDHILQLDPTYQRDIEKVHVRIVGIPRVIELRKIRSTDIGKLITIDGILVKVTPVKERIYKATYKHIHPDCMQEFEWPEDEEMPEVLEMPTICPKCGKPGQFRLIPEKTKLIDWQKAVIQERPEEVPSGQLPRQLEIILEDDLVDSARPGDRVKVTGILDIKQDSPVKRGSRAVFDIYMKVSSIEVSQKVLDEVIISEEDEKKIKDLAKDPWIRDRIISSIAPSIYGHWELKEALALALFGGVPKVLEDTRIRGDIHILIIGDPGTAKSQMLQFISRVAPRAVYTTGKGSTAAGLTAAVVREKGTGEYYLEAGALVLADGGIAVIDEIDKMRDEDRVAIHEAMEQQTVSIAKAGIVAKLNARAAVIAAGNPKFGRYISERPVSDNINLPPTILSRFDLIFILKDQPGEQDRELANYILDVHSGKSTKNIIDIDTLRKYIAYARKYVTPKITSEAKNLITDFFVEMRKKSSETPDSPILITPRQLEALIRISEAYAKMALKAEVTREDAERAINIMRLFLESVGVDMESGKIDIDTIMTGKPKSAREKMMKIIEIIDSLAVSSECAKVKDILKEAQQVGIEKSNIEKLLTDMRKSGIIYEAKPECYKKV
notes: MCM of Sulfolobus solfataricus, wild type; also called ssoMCM; WT; source: cloned and purified (Resource Q anion exchange, size-exclusion chromatography) as described previously [15]
stoichiometry N [1]: 6 | Km [2]: 170 ± 20 nM | kcat [2]: 0.0517 ± 0.00167 s⁻¹

B4: ssoMCM mutant M1 (K323A; printed R323A in Table 2) (enzyme, Sulfolobus solfataricus, UniProt Q9UXG1 1-686, looked up)
chain: MEIPSKQIDYRDVFIEFLTTFKGNNNQNKYIERINELVAYRKKSLIIEFSDVLSFNENLAYEIINNTKIILPILEGALYDHILQLDPTYQRDIEKVHVRIVGIPRVIELRKIRSTDIGKLITIDGILVKVTPVKERIYKATYKHIHPDCMQEFEWPEDEEMPEVLEMPTICPKCGKPGQFRLIPEKTKLIDWQKAVIQERPEEVPSGQLPRQLEIILEDDLVDSARPGDRVKVTGILDIKQDSPVKRGSRAVFDIYMKVSSIEVSQKVLDEVIISEEDEKKIKDLAKDPWIRDRIISSIAPSIYGHWELKEALALALFGGVPAVLEDTRIRGDIHILIIGDPGTAKSQMLQFISRVAPRAVYTTGKGSTAAGLTAAVVREKGTGEYYLEAGALVLADGGIAVIDEIDKMRDEDRVAIHEAMEQQTVSIAKAGIVAKLNARAAVIAAGNPKFGRYISERPVSDNINLPPTILSRFDLIFILKDQPGEQDRELANYILDVHSGKSTKNIIDIDTLRKYIAYARKYVTPKITSEAKNLITDFFVEMRKKSSETPDSPILITPRQLEALIRISEAYAKMALKAEVTREDAERAINIMRLFLESVGVDMESGKIDIDTIMTGKPKSAREKMMKIIEIIDSLAVSSECAKVKDILKEAQQVGIEKSNIEKLLTDMRKSGIIYEAKPECYKKV
notes: MCM of Sulfolobus solfataricus with the mutation of M1; also called K323 (M1); source: cloned and purified (Resource Q anion exchange, size-exclusion chromatography) as described previously [15]
stoichiometry N [1]: 6 | Km [2, 3]: 140 ± 30 nM | kcat [2, 3]: 0.03 ± 0.00167 s⁻¹

B5: ssoMCM mutant M2 (V324A) (enzyme, Sulfolobus solfataricus, UniProt Q9UXG1 1-686, looked up)
chain: MEIPSKQIDYRDVFIEFLTTFKGNNNQNKYIERINELVAYRKKSLIIEFSDVLSFNENLAYEIINNTKIILPILEGALYDHILQLDPTYQRDIEKVHVRIVGIPRVIELRKIRSTDIGKLITIDGILVKVTPVKERIYKATYKHIHPDCMQEFEWPEDEEMPEVLEMPTICPKCGKPGQFRLIPEKTKLIDWQKAVIQERPEEVPSGQLPRQLEIILEDDLVDSARPGDRVKVTGILDIKQDSPVKRGSRAVFDIYMKVSSIEVSQKVLDEVIISEEDEKKIKDLAKDPWIRDRIISSIAPSIYGHWELKEALALALFGGVPKALEDTRIRGDIHILIIGDPGTAKSQMLQFISRVAPRAVYTTGKGSTAAGLTAAVVREKGTGEYYLEAGALVLADGGIAVIDEIDKMRDEDRVAIHEAMEQQTVSIAKAGIVAKLNARAAVIAAGNPKFGRYISERPVSDNINLPPTILSRFDLIFILKDQPGEQDRELANYILDVHSGKSTKNIIDIDTLRKYIAYARKYVTPKITSEAKNLITDFFVEMRKKSSETPDSPILITPRQLEALIRISEAYAKMALKAEVTREDAERAINIMRLFLESVGVDMESGKIDIDTIMTGKPKSAREKMMKIIEIIDSLAVSSECAKVKDILKEAQQVGIEKSNIEKLLTDMRKSGIIYEAKPECYKKV
notes: MCM of Sulfolobus solfataricus with V324A; source: cloned and purified (Resource Q anion exchange, size-exclusion chromatography) as described previously [15]
stoichiometry N [1]: 6 | Km ([2]; mutant M2): 120 ± 20 nM | kcat ([2]; mutant M2): 0.04 ± 0.00167 s⁻¹

B6: ssoMCM mutant M9 (R331A) (enzyme, Sulfolobus solfataricus, UniProt Q9UXG1 1-686, looked up)
chain: MEIPSKQIDYRDVFIEFLTTFKGNNNQNKYIERINELVAYRKKSLIIEFSDVLSFNENLAYEIINNTKIILPILEGALYDHILQLDPTYQRDIEKVHVRIVGIPRVIELRKIRSTDIGKLITIDGILVKVTPVKERIYKATYKHIHPDCMQEFEWPEDEEMPEVLEMPTICPKCGKPGQFRLIPEKTKLIDWQKAVIQERPEEVPSGQLPRQLEIILEDDLVDSARPGDRVKVTGILDIKQDSPVKRGSRAVFDIYMKVSSIEVSQKVLDEVIISEEDEKKIKDLAKDPWIRDRIISSIAPSIYGHWELKEALALALFGGVPKVLEDTRIAGDIHILIIGDPGTAKSQMLQFISRVAPRAVYTTGKGSTAAGLTAAVVREKGTGEYYLEAGALVLADGGIAVIDEIDKMRDEDRVAIHEAMEQQTVSIAKAGIVAKLNARAAVIAAGNPKFGRYISERPVSDNINLPPTILSRFDLIFILKDQPGEQDRELANYILDVHSGKSTKNIIDIDTLRKYIAYARKYVTPKITSEAKNLITDFFVEMRKKSSETPDSPILITPRQLEALIRISEAYAKMALKAEVTREDAERAINIMRLFLESVGVDMESGKIDIDTIMTGKPKSAREKMMKIIEIIDSLAVSSECAKVKDILKEAQQVGIEKSNIEKLLTDMRKSGIIYEAKPECYKKV
notes: MCM of Sulfolobus solfataricus with R331A; source: cloned and purified (Resource Q anion exchange, size-exclusion chromatography) as described previously [15]
stoichiometry N [1]: 6

B7: ssoMCM mutant M10 (K346A, Walker A mutant) (enzyme, Sulfolobus solfataricus, UniProt Q9UXG1 1-686, looked up)
chain: MEIPSKQIDYRDVFIEFLTTFKGNNNQNKYIERINELVAYRKKSLIIEFSDVLSFNENLAYEIINNTKIILPILEGALYDHILQLDPTYQRDIEKVHVRIVGIPRVIELRKIRSTDIGKLITIDGILVKVTPVKERIYKATYKHIHPDCMQEFEWPEDEEMPEVLEMPTICPKCGKPGQFRLIPEKTKLIDWQKAVIQERPEEVPSGQLPRQLEIILEDDLVDSARPGDRVKVTGILDIKQDSPVKRGSRAVFDIYMKVSSIEVSQKVLDEVIISEEDEKKIKDLAKDPWIRDRIISSIAPSIYGHWELKEALALALFGGVPKVLEDTRIRGDIHILIIGDPGTAASQMLQFISRVAPRAVYTTGKGSTAAGLTAAVVREKGTGEYYLEAGALVLADGGIAVIDEIDKMRDEDRVAIHEAMEQQTVSIAKAGIVAKLNARAAVIAAGNPKFGRYISERPVSDNINLPPTILSRFDLIFILKDQPGEQDRELANYILDVHSGKSTKNIIDIDTLRKYIAYARKYVTPKITSEAKNLITDFFVEMRKKSSETPDSPILITPRQLEALIRISEAYAKMALKAEVTREDAERAINIMRLFLESVGVDMESGKIDIDTIMTGKPKSAREKMMKIIEIIDSLAVSSECAKVKDILKEAQQVGIEKSNIEKLLTDMRKSGIIYEAKPECYKKV
notes: MCM of Sulfolobus solfataricus with K346A (Walker A lysine); source: cloned and purified (Resource Q anion exchange, size-exclusion chromatography) as described previously [15]
stoichiometry N [1]: 6

B8: ssoMCM mutant M5 (E326A) (enzyme, Sulfolobus solfataricus, UniProt Q9UXG1 1-686, looked up)
chain: MEIPSKQIDYRDVFIEFLTTFKGNNNQNKYIERINELVAYRKKSLIIEFSDVLSFNENLAYEIINNTKIILPILEGALYDHILQLDPTYQRDIEKVHVRIVGIPRVIELRKIRSTDIGKLITIDGILVKVTPVKERIYKATYKHIHPDCMQEFEWPEDEEMPEVLEMPTICPKCGKPGQFRLIPEKTKLIDWQKAVIQERPEEVPSGQLPRQLEIILEDDLVDSARPGDRVKVTGILDIKQDSPVKRGSRAVFDIYMKVSSIEVSQKVLDEVIISEEDEKKIKDLAKDPWIRDRIISSIAPSIYGHWELKEALALALFGGVPKVLADTRIRGDIHILIIGDPGTAKSQMLQFISRVAPRAVYTTGKGSTAAGLTAAVVREKGTGEYYLEAGALVLADGGIAVIDEIDKMRDEDRVAIHEAMEQQTVSIAKAGIVAKLNARAAVIAAGNPKFGRYISERPVSDNINLPPTILSRFDLIFILKDQPGEQDRELANYILDVHSGKSTKNIIDIDTLRKYIAYARKYVTPKITSEAKNLITDFFVEMRKKSSETPDSPILITPRQLEALIRISEAYAKMALKAEVTREDAERAINIMRLFLESVGVDMESGKIDIDTIMTGKPKSAREKMMKIIEIIDSLAVSSECAKVKDILKEAQQVGIEKSNIEKLLTDMRKSGIIYEAKPECYKKV
notes: MCM of Sulfolobus solfataricus with E326A; source: cloned and purified (Resource Q anion exchange, size-exclusion chromatography) as described previously [15]
stoichiometry N [1]: 6
